One substance from patent publication US12357692B2, “Method of treating influenza A” (MEDIMMUNE, LLC, priority 2016, dated 2025) can be followed below.

For data set [1] the following is noted: in vivo.
Data set [2] has as its system influenza A virus infection. The settings on record: human, in vivo, iv.
Data set [3] is described as follows: Anti-drug antibody (ADA) responses in serum, electrochemiluminescent solution-phase bridging immunoassay. It counts as in vivo, human. As to conditions: Days 15, 29 and 101 after single IV dose. The source says: Blood samples were collected at Days 15(±1), 29(±2) and 101(±5) to evaluate anti-drug antibody (ADA) responses to MEDI8852 in serum using an electrochemiluminescent, solution-phase, bridging immunoassay. All ADA results were negative (i.e., no anti-drug antibody was found).

“MEDI8852: human IgG1 kappa monoclonal antibody that binds the conserved stalk region of influenza HA protein; VH SEQ ID NO:2, VL SEQ ID NO:7”: in data set [1] (human, iv), the “half-life following a single IV dose” value lay in the range of 19.4 to 22.6 days. The PK dose linearity entry in data set [1] is “dose-linear”. For the same substance, the efficacy entry in data set [2] is “better than oseltamivir alone”. In addition, the “anti-drug antibody (ADA) results” value in data set [3] is on record as “negative”.
